The results in this text go back to paper PMC5374107.

This experiment addresses ICAM-1D1D5-Fc::PFD1235w head structure complex (human | Plasmodium falciparum). The experiment in a line: SPR; Biacore T-200; dual binding: ICAM-1D1D5 Fc immobilized (1,800, 2,100 or 1,500 RU) on Protein A CM5 chip, head structure injected at 250 nM for 240 s, then EPCR injected, two-fold dilutions 250 nM to 16 nM, 30 µL/min, 240 s association, 720 s dissociation; 10 mM HEPES pH 8.0, 300 mM NaCl, 0.05% Tween-20; one-site kinetic model.

B1: Recombinant His-tagged EPCR (receptor)
chain: SQDASDGLQRLHMLQISYFRDPYHVWYQGNASLGGHLTHVLEGPDTNTTIIQLQPLQEPESWARTQSGLQSYLLQFHGLVRLVHQERTLAFPLTIRCFLGCELPPEGSRAHVFFEVAVNGSSFVSFRPERALWQADTQVTSGVVTFTLQQLNAYNRTRYELREFLEDTCVQYVQKHISAENTKGSQTSRSYTSLVLGVLVGSFIIAGVAVGIFLCTGGRRC
modifications: biotin (biotinylated by BirA)
One may read the Kd as the free concentration of one partner at which half of the binding sites on the other are occupied at equilibrium, for simple one-to-one binding. High values mean weaker binding, low ones tighter binding. The term koff denotes a measure of how fast the partners let go of each other. Broadly, the kon is the second-order rate constant of association. Read a high kon as faster complex formation. In the case of B1, the Kd amounted to 271 nM, the koff worked out at 0.00103 s⁻¹ and the kon was found to be 3600 M⁻¹ s⁻¹.
